{"source": "the PETadex activity labels", "proteins": {"B1": {"name": "unnamed (protein)", "chain": "MGSSHHHHHHSSGLVPRGSHMRGPNPTAASLEASAGPFTVRSFTVSRPSGYGAGTVYYPTNAGGTVGAIAIVPGYTARQSSIKWWGPRLASHGFVVITIDTNSTLDQPSSRSSQQMAALRQVASLNGTSSSPIYGKVDTARMGVMGWSMGGGGSLISAANNPSLKAAAPQAPWDSSTNFSSVTVPTLIFACENDSIAPVNSSALPIYDSMSRNAKQFLEINGGSHSCANSGNSNQALIGKKGVAWMKRFMDNDTRYSTFACENPNSTRVSDFRTANCSLEDPAANKARKEAELAAATAEQ"}, "B2": {"name": "unnamed (protein)", "chain": "MLAVWDDTLAHPVRGRDRELATLTGLLDNTSGRRGTGMVVVGAPGTGKTTLLNALVEHAEGFQVLWAEGSAAESDVRFAGVEQLLRPLESLVSLLPDDRGRALRPVWGLPADDEGQVGSLAVPAAVSALLGLAARRQPVLCCVDSAHLLDSASLSALAFAARRAHHAGVVFVFAVDCTADTEVDTETSVWGELPRLRLGRLDDEAAHALLRDRLGASLPHDLADSLLDVGHGAPLALVELAESLTPEHLCGRAAPPSSPPPEGRLCRTLGHRLSALSEGAREVVALAGISEGLDEQLTCRVLPHHRSTLAEAVRSGLVVLDGDTVRTAADTVPSALLAALTPQDIVQAHHRMAEAAEAVGDRDRAVWHRAAIAMAPDPALVADLDDIAERARAAAAHATAAAASERAAALTSDTKERARRLVAAATDHWASGRPQRARTALRLAAPLSDSVLGARVSRLAGEIELRRGDPSVAATKLISTARQLASTHRTLAASALMLAGEASFVAGDNARYCLTAKDAALLCGPEEWPATRVVREHFTAMSATFRGEHSAAAAPLRSLVELGETTPDPTAKTLASQAAFTLGDAERSRDLALQAVVCARARGDESGVPWALVYAALSALLSGQLSAASTTALEGLQVARSLGQSNSAVDHVTVLAMLAALQGDEETALQRLQAANTELAERGLGRPSALATWAAACVDLAHDRPAEAFDRFRRMTVGRSRHCVPLRVMAVPHFVEAAVRCGEKEVARRSLVTFEHWANTTGGTARVALAHRCHALLAEQDGEAQERFTEAVRLHREADAPYDLAVTQLLYASHLRRSRRPKQARELLREAVQLFDDLGATHWVERASQELRACGHPGRGKPHLSRGLSPQQERIAQLVADGATNKEIATQLFISHRTVDHHLRNIFAKLDVRSRVQLAALFR"}, "B3": {"name": "unnamed (protein)", "chain": "B2 chain with A233H"}, "B4": {"name": "unnamed (protein)", "chain": "B2 chain with A233D"}}, "key": {"[1]": {"substrate": "PET", "assay": "Proxy for plastic degradation [Released Products (MHET,BHET, TPA)]", "conditions": "pH 8"}, "[2]": {"substrate": "PBSA", "assay": "Proxy for plastic degradation [kcat/Km (catalytic efficiency)] (mM⁻¹s⁻¹)", "conditions": "pH 8.2"}}, "note": "Changes are numbered by the printed parent chain.", "data": [{"protein": "B1", "values": [{"measurement": "Proxy for plastic degradation", "setting": "[1]; 4 °C", "value": 100, "unit": "µM"}, {"measurement": "Proxy for plastic degradation", "setting": "[1]; 16 °C", "value": 410, "unit": "µM"}, {"measurement": "Proxy for plastic degradation", "setting": "[1]; 30 °C", "value": 1100, "unit": "µM"}, {"measurement": "Proxy for plastic degradation", "setting": "[1]; 37 °C", "value": 300, "unit": "µM"}, {"measurement": "Proxy for plastic degradation", "setting": "[1]; 55 °C", "value": 180, "unit": "µM"}, {"measurement": "Proxy for plastic degradation", "setting": "[1]; 70 °C", "value": 100, "unit": "µM"}]}, {"protein": "B2", "values": [{"measurement": "Proxy for plastic degradation", "setting": "[2]", "value": 430}]}, {"protein": "B3", "values": [{"measurement": "Proxy for plastic degradation", "setting": "[2]", "value": 375}]}, {"protein": "B4", "values": [{"measurement": "Proxy for plastic degradation", "setting": "[2]", "value": 330}]}]}
